Experiments:
[1] = tested on: colon cancer cell line (CT26) tumor; test: In vivo cancer growth inhibition, CT26 model, CL7 and anti-PD-1; design: species or system BALB/c mice; settings: CL7 10 mg/kg, anti-PD-1 10 mg/kg i.p. D12, D15, D19, D22; 25 days
Description: In order to identify anticancer effects of the anti-CD300c monoclonal antibody CL7 under in vivo conditions, a colon cancer cell line (CT26) at 2×10^5 cells was transplanted by subcutaneous injection into 8-week-old BALB/c mice to prepare syngeneic mouse tumor models. Animal breeding and experiments were all conducted in a SPF facility. On day 12 (D12) after transplantation of the colon cancer cell line, the mice with a tumor size of 50 mm^3 to 100 mm^3 were administered the anti-CD300c monoclonal antibody and an anti-PD-1 antibody purchased from BioXcell alone or in combination, and for a control group, the mice were administered the same amount of phosphate buffered saline (PBS). Specifically, the mice were intraperitoneally injected with the respective antibodies (CL7: 10 mg/kg; and anti-PD-1 antibody: 10 mg/kg) alone or in combination, twice a week for two weeks (a total of 4 times on D12, D15, D19, and D22). The tumor volume was measured for 25 days.

[2] = tested on: colon cancer cell line (CT26) tumor; test: Tumor-infiltrating lymphocytes and macrophages in CT26 cancer tissue after combined use; type: in vivo, BALB/c mice
Text: In order to identify effects of the anti-CD300c monoclonal antibody on tumor-infiltrating lymphocytes (TIL) in a tumor microenvironment (TME), on day 25 of an experiment conducted by the same method as in Experimental Example 7.1, the mice were euthanized, and injected intravascularly with 1% paraformaldehyde (PFA) to perform perfusion, and then the cancer tissue was obtained. The obtained cancer tissue was fixed using 1% PFA, and sequentially dehydrated using 10%, 20%, and 30% sucrose solutions. The dehydrated cancer tissue was frozen in OCT compound (optimal cutting temperature compound), and then the cancer tissue was sectioned to a thickness of 50 μm using a cryotome. The tissue was incubated at 37° C. for 1 hour in a mixed solution of collagenase D (20 mg/mL) and DNase I (2 mg/mL). Thereafter, the resultant product was filtered through a 70 μm cell strainer, followed by the lysis of red blood cells, and then again filtered through a nylon mesh for making single cells. To suppress non-specific reactions in the single cell suspension, the cells were incubated with a CD16/32 antibody (Invitrogen) for 1 hour, and then cell viability was identified, and CD8+ T cells and CD31+ cancer blood vessel cells, which are tumor-infiltrating lymphocyte markers, were stained.
In order to identify whether the anti-CD300c monoclonal antibody increases M1 macrophages in the cancer tissue of mouse models, the cancer tissue sections prepared by the same method as in Experimental Example 7.2 were stained with antibodies to the M1 macrophage marker iNOS and the M2 macrophage marker CD206, and analyzed by FACS.
In order to identify whether the anti-CD300c monoclonal antibody CL7 promotes CD8+ T cell immunity in mouse tumor models, on day 25 of the experiment conducted by the same method as in Experimental Example 7.1, the mice were euthanized, and injected intravascularly with 1% paraformaldehyde (PFA) to perform perfusion, and then the cancer tissue was obtained. The obtained cancer tissue was fixed using 1% PFA, and sequentially dehydrated using 10%, 20%, and 30% sucrose solutions. […]

[3] = CT26 cancer tissue, day 25, FACS

B1: CL7: anti-CD300c monoclonal antibody, VH3VL1 phage library, VH SEQ ID 327, VL SEQ ID 328 (antibody, V domains shown)
VH: EVQLLESGGGLVQPGGSLRLSCAASGFTFSRYAMSWVRQAPGKGLEWVSAISGSGGSTYYADSVKGRFTISRDNSKNTLYLQMNSLRAEDTAVYYCARSSQGIFDIWGQGTLVTVSS
VL: QSVLTQPPSASGTPGQRVTISCSGNNIGTRRVHWYQQLPDTAPKLLIYSKNNRPSGVPDRFSGSKSGTSASLAISGLRSEDEADYYCAAWDDSLSGPVFGGGTKLTVL
modifications: CL7 Heavy Chain Variable Region; CL7 Light Chain Variable Region
[1]
  cancer growth (tumor volume): inhibited
[2]; [3]
  M1 macrophages (iNOS) in cancer tissue: remarkably increased
  M2 macrophages (CD206) in cancer tissue: hardly observed
[2]; Experimental Example 7.4, CT26 cancer tissue sections, day 25
  CD8+ T cells in cancer tissue: remarkably increased

From patent publication US20240254220A1, “COMBINED THERAPY USING ANTI-CD300C ANTIBODY” (CentricsBio, Inc., priority 2021, published 2024)
